# Like-named read-outs stand apart in the source and are kept apart here.
# Legend:
# [1] = biological target: Streptococcus pyogenes enolase, wild type (WT-Sen) (Streptococcus pyogenes (Group A, isolate AP53)); test: AUC
# [2] = biological target: Streptococcus pyogenes enolase, wild type (WT-Sen) (Streptococcus pyogenes (Group A, isolate AP53)); test: AUC; remark: listed apart in the source
# [3] = biological target: Streptococcus pyogenes enolase, wild type (WT-Sen) (Streptococcus pyogenes (Group A, isolate AP53)); test: cryo-EM structure
# [4] = biological target: DOPG/Sen (the Sen variants of Figure 5A-D on DOPG vesicles); test: flow cytometry of phospholipid vesicles
# Streptococcus pyogenes enolase, wild type (WT-Sen) (enzyme), sequence (A2RFE3 whole entry): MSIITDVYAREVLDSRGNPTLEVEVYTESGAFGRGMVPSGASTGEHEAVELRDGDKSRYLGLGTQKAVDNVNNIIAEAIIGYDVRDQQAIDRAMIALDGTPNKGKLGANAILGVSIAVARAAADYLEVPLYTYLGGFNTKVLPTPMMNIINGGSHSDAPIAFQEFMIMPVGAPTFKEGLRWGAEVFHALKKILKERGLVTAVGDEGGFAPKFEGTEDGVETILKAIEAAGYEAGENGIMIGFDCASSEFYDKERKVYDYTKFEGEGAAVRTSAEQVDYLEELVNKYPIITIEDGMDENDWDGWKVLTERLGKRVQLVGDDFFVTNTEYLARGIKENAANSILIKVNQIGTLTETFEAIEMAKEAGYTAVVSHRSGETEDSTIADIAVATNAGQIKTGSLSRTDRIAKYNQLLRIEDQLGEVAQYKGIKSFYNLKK
substance,measurement,setting,value
"Streptococcus pyogenes enolase, wild type (WT-Sen) (enzyme)",percent as octamer,[1],> 95%
same,stoichiometry N,[1],8
same,percent as octamer,[2],> 95%
same,stoichiometry N,[2],8
same,stoichiometry N,[3],8
human plasminogen (hPg) (natural protein),percent of vesicles in the gate that defines DOPG/Sen bound to hPg,[4],83 to 93%

# From paper doi:10.1101/2022.12.06.518574
